# Results taken from patent US8461106B2, “Biofilm prevention using lactoferrin” (The Trustees of the University of Pennsylvania, priority 2007, dated 2013).
# B1: rhLactoferrin: Recombinant human lactoferrin produced in Aspergillus niger, structurally identical to native human lactoferrin (protein, UniProt P02788 20-710, looked up)
# Lactotransferrin: GRRRSVQWCAVSQPEATKCFQWQRNMRKVRGPPVSCIKRDSPIQCIQAIAENRADAVTLDGGFIYEAGLAPYKLRPVAAEVYGTERQPRTHYYAVAVVKKGGSFQLNELQGLKSCHTGLRRTAGWNVPIGTLRPFLNWTGPPEPIEAAVARFFSASCVPGADKGQFPNLCRLCAGTGENKCAFSSQEPYFSYSGAFKCLRDGAGDVAFIRESTVFEDLSDEAERDEYELLCPDNTRKPVDKFKDCHLARVPSHAVVARSVNGKEDAIWNLLRQAQEKFGKDKSPKFQLFGSPSGQKDLLFKDSAIGFSRVPPRIDSGLYLGSGYFTAIQNLRKSEEEVAARRARVVWCAVGEQELRKCNQWSGLSEGSVTCSSASTTEDCIALVLKGEADAMSLDGGYVYTAGKCGLVPVLAENYKSQQSSDPDPNCVDRPVEGYLAVAVVRRSDTSLTWNSVKGKKSCHTAVDRTAGWNIPMGLLFNQTGSCKFDEYFSQSCAPGSDPRSNLCALCIGDEQGENKCVPNSNERYYGYTGAFRCLAENAGDVAFVKDVTVLQNTDGNNNEAWAKDLKLADFALLCLDGKRKPVTEARSCHLAMAPNHAVVSRMDKVERLKQVLLHQQAKFGRNGSDCPDKFCLFQSETKNLLFNDNTECLARLHGKTTYEKYLGPQYVAGITNLKKCSTSPLLEACEFLRK
# modifications: recombinant, Aspergillus niger
# System: Pseudomonas aeruginosa (PAO1)
# Assay: Plate based peg-lid crystal violet biofilm formation assay (Moskowitz)
# Format: cell-based
# Conditions: for detergent induced biofilm formation, effect of concomitant rhLactoferrin: 3 mg/ml rhLactoferrin
# Description: Biofilm growth is determined using the plate based assay described by Moskowitz et al [Moskowitz, S. M., J. M. Foster, J. Emerson, et al., Clinically Feasible Biofilm Susceptibility Assay for Isolates of Pseudomonas Aeruginosa from Patients with Cystic Fibrosis. J Clin Microbiol, 2004. 42(5): p. 1915-22]. Pseudomonas aeruginosa (PAO1) cultures are grown to log phase (OD600=0.5) and 100 μl of culture is mixed with 25 μl of test 5× test substance and placed in 96 well flat bottom plates (Nalgene Nunc International, Rochester, N.Y.). A lid containing 96 polystyrene pegs (Nunc, TSP 96 well micro titer plate lid) is placed on top and the pegs are suspended in the wells. The lid is loosely fixed to the plate using a strip of parafilm (Menasha, Wis.). The plate is incubated without shaking at 37° C. for 20 hours at which time the lid containing the pegs is carefully removed from the 96 well culture plate and rinsed 3 times in sterile water. The pegs are placed in another 96 well plate containing Gram Crystal Violet (CV) (20 g/L CV, 8 g/L Ammonium Oxalate, 2% ethanol) for 15 min and then rinsed in sterile water three times to remove unbound crystal violet. The pegs are then immersed in a 96 well plate containing 200 ul of 100% EtOH for 15 minutes. The lid containing the pegs is removed from the eluted crystal violet and is read at 595 nm using a plate reader (Microplate Reader 680, Bio-Rad Hercules, Calif.).
# These mutants are used as negative controls in each of the experiments to determine background signal above the blank.
# The concentration of baby shampoo/chemical surfactant used for the clinical study was determined through in-vitro testing on planktonic pseudomonas aeruginosa and pre-formed pseudomonas aeruginosa biofilms. Bacterial and biofilm growth inhibition was determined using the plate based assay described in Moskowitz et al., (Clinically feasible biofilm susceptibility assay for isolates of Pseudomonas aeruginosa from patients with cystic fibrosis. J. Clinical Microbiology 2004; 42:1915-22). Briefly, PAO1 Pseudomonas aeruginosa bacterial strains were grown overnight. The following morning the culture was diluted to an OD600=0.1 with Luria-Bertani broth (LB) and the sample again diluted 1:100 in LB. […] At the completion of the incubation the lid containing the pegs was removed and processed for biofilm detection while the 96 well plate was analyzed for bacterial growth by determination of absorbance at 600 nm. […] The peg lid was then discarded and the eluted crystal violate was read on a microtiter plate reader (Microplate Reader 680, Bio-Rad Hercules, Calif.) at an optical density of 595 nm (OD595). […] Quantification of residual biofilms was performed as described above.
molecule,measurement,setting,value
B1,"detergent induced biofilm formation, effect of concomitant rhLactoferrin","induction by Curosurf, FIG. 5 bottom panel",blunts the induction of biofilm formation
same,"detergent induced biofilm formation, effect of concomitant rhLactoferrin","induction by Johnson and Johnson Baby Shampoo, FIG. 5 top panel",blunts the induction of biofilm formation
same,"detergent induced biofilm formation, effect of rhLactoferrin","detergents in general, FIGS. 4 and 5",inhibits detergent induced biofilm formation
same,"induction of biofilm formation by subtherapeutic concentrations of antibiotics, effect of added rhLactoferrin","subtherapeutic Cephalosporins and aminoglycosides, FIG. 3",blunted
